Results taken from the nanobody polyreactivity screen of Harvey et al. (2022).

Test: yeast display, Sf9 membrane polyspecificity reagent, FACS + sequencing; frameworks hold sequencing errors
How it was run: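 After 36–48 hours of galactose induction, yeast (Saccharomyces cerevisiae BJ5465) displaying a synthetic nanobody library were stained at 4 °C for 1 hour with 10% biotinylated, detergent-solubilized Sf9 membrane reagent. Streptavidin microbeads enriched the stained cells before FACS sorting into low and high (top ~1%) gates on anti-HA and streptavidin fluorescence. Each clone's polyreactivity label reflects its gate of origin.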

Sequence | polyreactivity (PSR sort gate)
QVQLVESGGGLVQAGGSLRLSCAASGRTFGYYAMGWYRQAPGKEREFVAAIWGGTSTYYADSVKGRFTISRDNAKNTVYLQMNSLKPEDTAVYYCAAEGWLYPTGYSTLHYEYDYWGQGTQVTVSS | low polyreactivity
QVQLVESGGGLVQAGGSLRLTCAASGRIFQRYAMGWYRQAPGKERELVAGITSSGGSTYYADSVKGRFTISRDNAKNTVYLQMNSLKPEDTAVYYCNAGGELRYYGYRAGGTTRSYDYWGQGTQVTVSS | low polyreactivity
QVQLVESGGGLVQAGGSLRLSCSASGFIFVDYAMGWYRQSPGKERELVAAISRSGGSTYYADSVKGRFTISRDNAKNTVYLQMNSLKPEDTAVYYCAAKYPFYAKNGYWGQGTQVTVSS | high polyreactivity
QVQVVESGGGLVQAGGSLRLSCAASGSTFSSYVMGWYRQATGKERELVAAISSIGGSTYYADSVKGRFTISRDNAKITVYLQMNSLKPEDTAVYYCAAEPPGSTYEGGYWGQGTQVTVSS | low polyreactivity
QVQRVESGGGLVQAGGSLRLSCAASGFIFYGNTMGWYREAPGKERELVASITSGSSTHYAYSVKGRFTISRDNAKNTVYLQMNSLKPEDTAVYYCIVDDIQFGKYDYWGQGTQVTVSS | low polyreactivity
QVQLVESGGGLVQAGGRLRLSCAASGRTLWIYAMGWYRQAPGKERELVASITTRGGSTYYADSVKGRFTISRDNAKNTVYLQMKSLKPEDTAVYYCAAEGYTYYTYDPHDYWGQGTQVTVSS | high polyreactivity
QVQLVESGGGLLQAGGSLRLSCAASGIIYRPYAMGWYRQAPGKERELVAAITGSGVSTYYADSVKGRFTISRDNAKNTVYLQMNSLKPEDTAVYYCAKRYNRGYHRYDSWGQGTQVTVSS | low polyreactivity
QVQLVESGGGLVQAGGSLRLSCAASGSTFFHYARGWYRQAPGKERELVAAISGSGGSTYYADSVKGRFTISRDNAKNTVYLQMNSLKPEDTAVYYCNARVWHYTSRTTFDYWGQGTQVTVSS | low polyreactivity
QVQLVESGGGFVPAGGSLRLSCAASGSTFIPYAMGWYRQAPGKERELVAAISSGGRTYYADSVKGRFTISRDNAKNTVYLQMNSVKPEDTAGYYCASTTSPSSARYYYWGQGTQVTVSS | high polyreactivity
QVQLVESGAGLVQAGGSLRLSCAASGSIFLYNDMGWYRQAPGKERELVAAITSDGSTNYADSVKGRFTISRDNAMNTVYLQMNSLKPEDNAVYYCAADALWFYLNWYYGGTAYGYWGQCTQVTVSS | low polyreactivity
QVQLVESGGGLVQAGGSLRLSCAASGSTFAPYAMGWYRQAPGKERELVATISFRGGSTYYADSVKGRFTISRDNEMNTVFLEMNNLKPEDTAVYYCNAQRRYPYGYGYWGQGTQVTVSS | high polyreactivity
QVQLEESGGGLVQAGGSLRLSCAASGRIFLYNAMGWYRQAPGKERELVAAISRSGGSTYYADSVKGRFTISRDNAKNTVYLQMNSLKPEDTAVYYCAVGSPYGCRAPWVRGGDYWGQGTQVTVSS | high polyreactivity
QVQLVESGGGLVEAGGSLRLSCAASGINFWVNAMGWYRQAPGKERELVAAIRSDGSTKYADSVKGRFSSSRDNAKNTVYLQMNSLKPEDTAIYYCAKRDFSYPWLRDFYYWGQGTQVTVSS | low polyreactivity
QVQLVESGGGLVQAGGSLRLSCAASGRIFSRNAMGWYRKAPGKERELVATISAGGGRTSYADSVKGRFTISRDNAKNTVYLQMNSLKPEDTADYYCAARGQVGYYWGQGTQVTVSS | high polyreactivity
QVQLVESGGGLVQAGGSLRLSGDATGLIFNKYAMGWYRQAPGKERELVAVISFRGDGTHYADSVKGRFTISRDNAKYTVYLQMNSLKPEDTAVYYCNARTSIYGRRLYDYWGQGTQVTVSS | high polyreactivity
QVQLVESAGCLVQAGGSLRLSCDASGIIFKVYAMGWYSQAPGKEREWVAAISWSGSSTYYADTVKGRFTISRDKAKNTVYLQMNSLKPEDTAVYYCAAYSVARSMGYWGQGTQVTVSS | high polyreactivity

Sequence | polyreactivity (PSR sort gate)
QVQLVESGGGLVQAGGSLRLSCAASGRIFVYYVMGWYRQAPGKERELVASITFRGSRTYYADSVKGRFTISRDNAKNTVYLQMNSLKPEDTAVDYCNADVWASGSRGEGYWGQGTQVTVSS | low polyreactivity
QVQLVESGGGLVQAGGSLRLSCAASGIIFSYYAMGWYRQEPGKERELVAAIDSGGSTYYADSVKGRFTISRDNAKNTVYLQMNSLKPEDTAVYYCNADTARGVPVFPHDYWGQGTQVTVSS | low polyreactivity
QVQLVESGGGLVQAGGSLRLSCAASGRTSYSNAMGWYRQAPGKERELVAAISGSGVRTYYADSVKGRFTISRDNAKNTVYLQMNSLKPEDTAVYYCAAAGRYPALYGYWGQGTQVTVSS | high polyreactivity
QVQLVESGGGLVQAGGSLRLSCAASGRIFGKYAMGWYRQAPGKERELVAVITSRDGRTYYADSVKGRFTISRDNAKNTVYLQMNSLKPEDTAVYYCAADLVNGHYYYWGQGTQVTVSS | low polyreactivity
QVQLVESGGGLVQAGGSLRLSCAASGLIFYRYVMGWYRQAPGKEREFVAAISSGGSTYYADSVKGLFTISRDNAKNTVYLQMNSLKPEDTAVYYCNTLSQVFASRAPKFDYWGQGTQVTVSS | high polyreactivity
QVQLVESGGGLVQAGGSLRLSCAASGRTFNVYAMGWYRQAPGKETELVAVITNGGSTNYADSVKGRFTISRDNAKNTVYFQMNSLKPEDTAVYYCAAREDLYLYYNGQRVQYDYCGQGTQVTVSS | low polyreactivity
QVQLVESGGGLVQAGGSLRLSCAASGRIFGQNAMGWYRQAPGKERELVAAITGSGGRTYYADSVKGRFTISRDNAKNTVYLQMNSLKPEYTAVYYCAVSVTSYYRTMDYWGQGTQVTVSS | low polyreactivity
QVQLVESGGGLVQAGGSLRLSCAPSGRTFIFYAMGWSRQAPGKERELVAAISSSGSGTYYADSVKGRFTISRDNAKNTVYLQMNSLIPEDTAVYYCAADVVNSRRRPKYGYWGQGSQVTVSS | low polyreactivity
QVQLVESGGGLVQAGGSLRLSCAASGRTFGTYDMGWYRQAPGKERELVAGINGSGGSTYYADSVKGRFTISRDNAKNTVYLQMNSLKPEDTAVYYCAADRRFSTYDYWGQGTQVTVSS | high polyreactivity
QVQLVESGGGLVQAGGSLRLSCAASGSIFSIYAMEWYRQAPGKERELVAAITWGGGSTYYADSVKGRFTISRDNAKNTVYLQMNSLKPEDTAVYYCAADSLTWYGTYYYWGQGTQVTVSS | high polyreactivity
QVQLVESGGGLVQAGGSLRLSCAASGSTFPWYAMGWYRQAPGKERELVAAISFSGGSTYYADSVKGRFTISRDNAKNTVYFQMNSLKPEDTAVYYCAAVWGYVIWVDTAVYREYDYWGQGTQVTVSS | high polyreactivity
QVQLVESGGGLVQAGGSLRLSCAASGRIFTSNAMGWYRQAPGKERELVAAISSSSGSTYYADSVKGRFTISRDNAKNTVSLQMNSLKPEDTAVYYCAARTWRVSGTYKYDYWGQGTQVTVSS | low polyreactivity
QVQLVESGGGLVQAGGSLRLSCAASGRTFNHNPMRWYRQAPGKERELVAAISYSGGGTYYADSVKGRFTFSRDNAKNSVYLQMNSLKPEDTAVYFCAAYPVRGAYGYWGQGTQVTVSS | low polyreactivity
QVQLVESGGGLVQAGGSLRLSCAASGSIFYKNAMGWYRQAPGKERELVAAITYSGGSTYYADSVKGRFTISRDNAKNTVYLQMNSLKPEDTAVYYCAADIGVYGERREEEYDYWGQGTQVTVSS | low polyreactivity
QVQLVESGGGLVQAGGSLRLSCAASGRIFGIYTMGWYRQAPGKERELVAAISRSGGSTYYADSVKGRFTISRDNAKNTVYLQMNSLKPEDTAVYYCAAVPYRFPGYGFDSWGQGTQVTVSS | high polyreactivity
